# Source: article PMC4346865
# Several values for one entry are separate records, joined by “and”; a condition that tells them apart may be missing. Equal entries are not always repeated.
# Key:
# [1] = molecular target: T1, alpha toxin (alpha-hemolysin) (Staphylococcus aureus, UniProt P09616 27-319); experiment: SPR; assay 2; […] (pH not stated); SPR temperature not stated; […]; details: protein: commercial; stem-loop (Mfold)
# [2] = molecular target: T1, alpha toxin (alpha-hemolysin); experiment: SPR; […] (pH not stated); SPR temperature not stated; […]; details: protein: commercial; stem-loop (Mfold)
# [3] = molecular target: T1, alpha toxin (alpha-hemolysin); experiment: SPR; assay 1; […] (pH not stated); SPR temperature not stated; […]; details: protein: commercial; stem-loop (Mfold)
# exotoxin A = exotoxin A (UniProt P11439 26-638); experiment: fluorescence plate binding; p = 0.004; […] (pH not stated); SPR temperature not stated; […]; details: protein: commercial; stem-loop (Mfold)
# Sequence of exotoxin A (P11439 26-638): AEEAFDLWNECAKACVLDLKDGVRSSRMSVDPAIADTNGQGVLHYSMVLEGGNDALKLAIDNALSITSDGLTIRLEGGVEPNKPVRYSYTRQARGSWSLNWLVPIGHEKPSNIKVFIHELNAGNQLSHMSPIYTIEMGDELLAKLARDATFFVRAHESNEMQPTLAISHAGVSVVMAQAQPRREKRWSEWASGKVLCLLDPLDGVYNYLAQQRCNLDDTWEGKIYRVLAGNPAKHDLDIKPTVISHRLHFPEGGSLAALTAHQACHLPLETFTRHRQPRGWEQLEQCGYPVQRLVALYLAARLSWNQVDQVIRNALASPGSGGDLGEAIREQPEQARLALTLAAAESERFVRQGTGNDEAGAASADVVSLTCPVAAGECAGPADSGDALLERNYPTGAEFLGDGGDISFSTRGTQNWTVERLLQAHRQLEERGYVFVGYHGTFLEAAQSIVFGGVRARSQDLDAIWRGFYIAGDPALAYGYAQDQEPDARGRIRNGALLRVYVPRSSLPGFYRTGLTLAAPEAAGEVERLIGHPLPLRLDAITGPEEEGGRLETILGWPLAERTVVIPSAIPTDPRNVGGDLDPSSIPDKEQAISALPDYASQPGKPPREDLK
# toxin B = toxin B (UniProt P18177 2-2366); experiment: […] (pH not stated); SPR temperature not stated; […]; details: protein: commercial; stem-loop (Mfold)
# Sequence of toxin B (P18177 2-2366): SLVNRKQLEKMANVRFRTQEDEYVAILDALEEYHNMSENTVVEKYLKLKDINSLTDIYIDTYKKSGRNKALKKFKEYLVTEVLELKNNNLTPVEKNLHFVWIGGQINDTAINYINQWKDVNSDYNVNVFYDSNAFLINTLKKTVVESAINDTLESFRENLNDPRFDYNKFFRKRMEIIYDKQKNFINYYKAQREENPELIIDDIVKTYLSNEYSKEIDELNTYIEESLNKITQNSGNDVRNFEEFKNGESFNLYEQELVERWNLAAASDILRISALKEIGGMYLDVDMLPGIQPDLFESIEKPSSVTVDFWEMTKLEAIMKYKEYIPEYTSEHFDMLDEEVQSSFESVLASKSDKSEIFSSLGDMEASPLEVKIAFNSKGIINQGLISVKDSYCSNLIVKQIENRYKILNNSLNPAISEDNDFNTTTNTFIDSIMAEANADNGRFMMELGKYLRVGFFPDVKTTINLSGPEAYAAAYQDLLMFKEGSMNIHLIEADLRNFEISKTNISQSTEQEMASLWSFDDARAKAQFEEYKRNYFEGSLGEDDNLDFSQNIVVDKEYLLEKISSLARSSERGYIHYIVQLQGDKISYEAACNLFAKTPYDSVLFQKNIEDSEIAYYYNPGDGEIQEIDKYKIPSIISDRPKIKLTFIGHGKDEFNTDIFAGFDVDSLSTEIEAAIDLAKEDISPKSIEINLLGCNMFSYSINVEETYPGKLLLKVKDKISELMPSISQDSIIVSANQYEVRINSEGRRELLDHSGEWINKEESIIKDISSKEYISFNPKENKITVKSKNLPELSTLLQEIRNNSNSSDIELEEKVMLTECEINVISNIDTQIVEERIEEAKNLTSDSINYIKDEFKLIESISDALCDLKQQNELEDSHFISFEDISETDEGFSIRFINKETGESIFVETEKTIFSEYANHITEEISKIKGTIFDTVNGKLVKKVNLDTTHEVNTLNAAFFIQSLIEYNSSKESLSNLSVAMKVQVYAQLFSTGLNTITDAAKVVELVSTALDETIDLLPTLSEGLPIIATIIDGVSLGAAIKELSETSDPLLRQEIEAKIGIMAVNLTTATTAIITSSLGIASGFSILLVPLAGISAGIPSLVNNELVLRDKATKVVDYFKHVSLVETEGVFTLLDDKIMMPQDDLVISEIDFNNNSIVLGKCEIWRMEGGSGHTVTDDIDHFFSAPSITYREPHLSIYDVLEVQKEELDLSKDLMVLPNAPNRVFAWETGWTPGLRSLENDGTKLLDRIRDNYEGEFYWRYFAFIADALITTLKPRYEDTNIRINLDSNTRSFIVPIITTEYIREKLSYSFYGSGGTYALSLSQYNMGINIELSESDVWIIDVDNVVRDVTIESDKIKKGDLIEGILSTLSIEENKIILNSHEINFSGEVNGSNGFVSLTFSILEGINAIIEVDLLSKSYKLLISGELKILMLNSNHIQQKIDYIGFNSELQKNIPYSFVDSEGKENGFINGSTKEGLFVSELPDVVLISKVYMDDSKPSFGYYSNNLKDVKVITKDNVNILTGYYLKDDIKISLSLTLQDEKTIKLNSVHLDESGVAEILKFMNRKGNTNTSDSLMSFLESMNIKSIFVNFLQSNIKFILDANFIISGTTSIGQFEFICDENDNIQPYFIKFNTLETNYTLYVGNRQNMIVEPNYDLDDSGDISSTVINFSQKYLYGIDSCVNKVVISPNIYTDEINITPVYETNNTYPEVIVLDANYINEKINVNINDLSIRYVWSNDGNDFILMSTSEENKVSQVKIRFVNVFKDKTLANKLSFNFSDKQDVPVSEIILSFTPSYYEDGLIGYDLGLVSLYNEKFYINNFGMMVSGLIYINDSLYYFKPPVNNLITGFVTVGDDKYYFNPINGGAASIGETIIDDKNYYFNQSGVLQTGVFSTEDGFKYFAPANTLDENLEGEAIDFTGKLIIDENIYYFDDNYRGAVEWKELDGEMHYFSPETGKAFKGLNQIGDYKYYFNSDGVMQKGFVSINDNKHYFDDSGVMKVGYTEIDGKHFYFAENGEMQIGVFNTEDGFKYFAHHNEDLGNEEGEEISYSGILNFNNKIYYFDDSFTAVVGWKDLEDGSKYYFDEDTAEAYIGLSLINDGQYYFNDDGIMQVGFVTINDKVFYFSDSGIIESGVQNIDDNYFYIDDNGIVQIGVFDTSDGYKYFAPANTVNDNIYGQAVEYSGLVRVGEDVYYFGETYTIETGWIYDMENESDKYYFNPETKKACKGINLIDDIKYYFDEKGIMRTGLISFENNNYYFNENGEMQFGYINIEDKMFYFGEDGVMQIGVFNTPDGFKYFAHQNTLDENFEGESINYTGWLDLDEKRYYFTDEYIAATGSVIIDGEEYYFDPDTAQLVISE
# [4] = molecular target: T1, alpha toxin (alpha-hemolysin); experiment: as above; details: protein: commercial; stem-loop (Mfold)
# cholera toxin = cholera toxin (UniProt P01555;P01556 19-258;22-124); experiment: as above; details: protein: commercial; copies: 1;5; stem-loop (Mfold)
# Sequence of cholera toxin (P01555 19-258, chain 1 of 2): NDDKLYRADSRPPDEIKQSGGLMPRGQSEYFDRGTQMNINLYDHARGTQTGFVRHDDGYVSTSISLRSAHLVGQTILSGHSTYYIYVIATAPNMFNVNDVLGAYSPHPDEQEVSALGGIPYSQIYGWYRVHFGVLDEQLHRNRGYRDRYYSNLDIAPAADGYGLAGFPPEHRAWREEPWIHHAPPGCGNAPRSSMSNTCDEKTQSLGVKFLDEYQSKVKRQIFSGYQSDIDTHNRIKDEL
# Sequence of cholera toxin (P01556 22-124, chain 2 of 2): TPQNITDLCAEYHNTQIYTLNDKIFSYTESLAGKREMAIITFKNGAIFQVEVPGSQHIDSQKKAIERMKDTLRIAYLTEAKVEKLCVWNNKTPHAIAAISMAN
# T1 sequence (P09616 27-319): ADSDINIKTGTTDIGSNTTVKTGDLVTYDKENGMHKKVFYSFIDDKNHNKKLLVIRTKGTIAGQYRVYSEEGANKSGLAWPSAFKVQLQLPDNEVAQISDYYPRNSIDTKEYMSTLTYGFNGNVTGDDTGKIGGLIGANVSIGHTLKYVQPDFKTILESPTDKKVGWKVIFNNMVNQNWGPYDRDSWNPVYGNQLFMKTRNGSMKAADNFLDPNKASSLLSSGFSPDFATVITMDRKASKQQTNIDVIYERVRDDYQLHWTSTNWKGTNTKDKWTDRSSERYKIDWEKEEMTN
binder,measurement,setting,value
"R12.06 (5'-amino-C6) (ssDNA, 5' amino-C6) DNA: TGTACCGTCTGAGCGATTCGTACGATTACTATAATTTCCTATCGTCCGACCGCCGTCAGCCAGTCAGTGTTAAGGAGTGC",Kd,[1],88.7 nM
same,Kd,[2],93.7 nM and 90.7 nM
same,Kd,[3],102 nM
R12.06 (FAM) (ssDNA) DNA: TGTACCGTCTGAGCGATTCGTACGATTACTATAATTTCCTATCGTCCGACCGCCGTCAGCCAGTCAGTGTTAAGGAGTGC,binding signal,exotoxin A,1.5 fold lower than alpha toxin
same,binding signal,toxin B,5 fold lower than alpha toxin
same,binding signal,[4],1 relative to alpha toxin
same,binding signal,cholera toxin,1.5 fold lower than alpha toxin
